The values that follow come from PMC8191759.

Among the targets are NSP8 F92A (SARS-CoV-2); NSP8 M90A (SARS-CoV-2); NSP8 M94A (SARS-CoV-2).
Assay in all cases: cross-linking

One may read the stoichiometry N as a count of units in the complex or per binding partner.

For the substance NSP8 F92A (natural protein), the stoichiometry N with NSP8 F92A (SARS-CoV-2) is 2.
NSP8 M90A (natural protein) displayed a stoichiometry N with NSP8 M90A (SARS-CoV-2) of 2.
As for NSP8 M94A (natural protein), the stoichiometry N in the assay with NSP8 M94A (SARS-CoV-2) stood at 2.
